Results reported in US20230414660A1 (LUDWIG INSTITUTE FOR CANCER RESEARCH, published 2023).
Changes are numbered by the printed parent chain.

B1: WT PD1 (receptor)
chain: MASDSPDRPWNPPTFSPALLVVTEGDNATFTCSFSNTSESFVLNWYRMSPSNQTDKLAAFPEDRSQPGQDARFRVTQLPNGRDFHMSVVRARRNDSGTYLCGAISLAPKAQIKESLRAELRVTERRALEHHHHHH
notes: Soluble monomeric protein made in bacteria with a C-terminal 6xHis tag and detected with anti-His antibody; also called WT PD1 decoy; WT PD-1 decoy
B2: PD1_4XMUT (with 6xHis) (receptor)
chain: B1 chain with M48E, T54D, K56R, L100F, Q111K
notes: Soluble monomeric, bacterial production
B3: Core A (receptor)
chain: B1 chain with M48E, T54D, K56R, L100E, Q111K
notes: PD1 decoy variant, bacterial, C-terminal 6xHis
B4: T_76D (receptor)
chain: B1 chain with T54D
notes: as for B3
B5: L122E (receptor)
chain: B1 chain with L100E
notes: as for B3
B6: PD1_6XD (with 6xHis) (receptor)
chain: B1 chain with M48E, T54V, K56R, L100F, A110W, Q111K
notes: as for B2
B7: A132W (receptor)
chain: B1 chain with A110W
notes: as for B3
B8: 5XD (receptor)
chain: B1 chain with M48E, T54V, K56R, L100F, Q111K
notes: as for B3
B9: PD1_4XMUT_M70 (with 6xHis) (receptor)
chain: B1 chain with T54D, K56R, L100F, Q111K
B10: X1 4XMut (receptor)
chain: B1 chain with M48E, T54D, K56R, Q111K
notes: as for B3
B11: K_78R (receptor)
chain: B1 chain with K56R
notes: as for B3
B12: Core L (receptor)
chain: B1 chain with M48E, T54D, K56R, L100E, A110L, Q111K
notes: as for B3
B13: PD1_6XDM (with 6xHis) (receptor)
chain: B1 chain with T54V, K56R, L100F, A110W, Q111K
notes: as for B2
B14: B2 4XB (receptor)
chain: B1 chain with M48D, T54D, K56R, Q111K
notes: as for B3
B15: 6XB (receptor)
chain: B1 chain with M48E, T54D, K56R, L100I, A110W, Q111K
notes: as for B3
B16: Core_W (receptor)
chain: B1 chain with M48E, T54D, K56R, L100E, A110W, Q111K
notes: as for B3
B17: M70E (receptor)
chain: B1 chain with M48E
notes: as for B3
B18: 6XC (receptor)
chain: B1 chain with M48E, T54V, K56R, L100I, A110W, Q111K
notes: as for B3
B19: Q133K (receptor)
chain: B1 chain with Q111K
notes: as for B3

What follows are binders tested against T1, human PDL1 protein (human, UniProt Q9NZQ7 19-238, limits assumed) (assay: titration ELISA, soluble His-tagged PD1 decoy on plate-coated human PD-L1, anti-His detection).
T1 construct: also called plate-captured PD-L1
T1 sequence (Q9NZQ7 19-238 limits assumed): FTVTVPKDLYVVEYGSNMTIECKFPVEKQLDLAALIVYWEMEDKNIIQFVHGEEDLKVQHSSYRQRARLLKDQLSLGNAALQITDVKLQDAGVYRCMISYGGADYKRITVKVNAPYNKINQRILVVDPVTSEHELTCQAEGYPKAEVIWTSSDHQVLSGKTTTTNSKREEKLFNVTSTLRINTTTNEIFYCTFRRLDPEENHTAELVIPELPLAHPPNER

| Affinity to PD-L1 (relative to WT PD1) | Binder |
| --- | --- |
| 1 fold relative to WT PD1 | B1 |
| 5 fold relative to WT PD1 | B2 |
| 7.1 fold relative to WT PD1 | B3 |
| 8.3 fold relative to WT PD1 | B4 |
| 3 fold relative to WT PD1 | B5 |
| 7.2 fold relative to WT PD1 | B6 |
| 3 fold relative to WT PD1 | B7 |
| 1.1 fold relative to WT PD1 | B8 |
| 10 fold relative to WT PD1 | B9 |
| 5.6 fold relative to WT PD1 | B10 |
| 1.4 fold relative to WT PD1 | B11 |
| 1.7 fold relative to WT PD1 | B12 |
| 7.5 fold relative to WT PD1 | B13 |
| 7.3 fold relative to WT PD1 | B14 |
| 1.3 fold relative to WT PD1 | B15 |
| 1020 fold relative to WT PD1 | B16 |
| 5.2 fold relative to WT PD1 | B17 |
| 1.1 fold relative to WT PD1 | B18 |
| 3 fold relative to WT PD1 | B19 |
